Assay results reported in paper PMC6525047.

T1: RIPLET (human), Q8IUD6
T1 chain: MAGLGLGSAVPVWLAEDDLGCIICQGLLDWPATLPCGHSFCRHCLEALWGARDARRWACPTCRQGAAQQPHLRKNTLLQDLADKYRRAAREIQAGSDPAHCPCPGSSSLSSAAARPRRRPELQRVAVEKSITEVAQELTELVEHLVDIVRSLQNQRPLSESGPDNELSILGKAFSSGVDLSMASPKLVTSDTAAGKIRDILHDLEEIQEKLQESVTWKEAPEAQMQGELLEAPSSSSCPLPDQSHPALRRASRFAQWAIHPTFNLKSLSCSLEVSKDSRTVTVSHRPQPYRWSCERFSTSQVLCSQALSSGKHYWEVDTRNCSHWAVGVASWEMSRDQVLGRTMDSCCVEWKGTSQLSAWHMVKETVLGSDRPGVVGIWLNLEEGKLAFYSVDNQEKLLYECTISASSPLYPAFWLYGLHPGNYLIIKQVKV

T2: RIG-IdeltaN;RIPLET (human;human, UniProt O95786;Q8IUD6 230-925;1-432, |)
T2 sequence 1: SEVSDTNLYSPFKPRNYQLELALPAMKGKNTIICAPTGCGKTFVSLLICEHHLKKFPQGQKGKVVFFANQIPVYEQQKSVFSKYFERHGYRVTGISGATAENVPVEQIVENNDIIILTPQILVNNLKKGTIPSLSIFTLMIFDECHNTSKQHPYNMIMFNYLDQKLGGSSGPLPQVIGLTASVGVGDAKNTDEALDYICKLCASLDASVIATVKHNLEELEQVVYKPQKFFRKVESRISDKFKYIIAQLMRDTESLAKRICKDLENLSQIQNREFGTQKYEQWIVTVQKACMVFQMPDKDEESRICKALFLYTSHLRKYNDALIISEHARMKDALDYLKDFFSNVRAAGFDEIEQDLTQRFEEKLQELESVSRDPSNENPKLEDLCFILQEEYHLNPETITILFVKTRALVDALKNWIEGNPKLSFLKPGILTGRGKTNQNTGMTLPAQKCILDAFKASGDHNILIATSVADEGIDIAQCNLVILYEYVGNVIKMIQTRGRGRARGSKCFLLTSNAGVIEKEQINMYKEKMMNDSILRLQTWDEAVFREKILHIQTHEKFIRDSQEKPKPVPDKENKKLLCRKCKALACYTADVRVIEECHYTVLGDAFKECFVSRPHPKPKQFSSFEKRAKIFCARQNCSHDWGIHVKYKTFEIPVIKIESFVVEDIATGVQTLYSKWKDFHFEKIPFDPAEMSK
T2 sequence 2: T1 chain

B1: RIPLET, Q8IUD6 1-432 (enzyme)
chain: T1 chain
B2: 21 bp dsRNA (dsRNA)
RNA 1: GAGUCACGACGUUGUAAAAAA
RNA 2: UUUUUUACAACGUCGUGACUC
modifications: 5'ppp

Key:
RIPLET (human), Q8IUD6 = molecular target: T1, RIPLET (human), Q8IUD6; assay: SEC-MALS; settings: remark: other sources report otherwise
RIG-IdeltaN;RIPLET = molecular target: T2, RIG-IdeltaN;RIPLET; assay: EMSA

Binder | stoichiometry N (RIPLET (human), Q8IUD6) | binding result (RIG-IdeltaN;RIPLET)
B1 | 2 | 
B2 |  | binds
